Measured values reported in patent publication US20110318339A1.
Blank lines part the entries; values can stand above or below the substance they belong to.

Tests used:
[1] = target: rHuman CD44/Fc Chimera, CF (Cat# 3660-CD) (human) (UniProt P16070); assay: Multispot ECL; Fab 70 nM
[2] = target: rHuman ErbB2/Fc Chimera, CF (Cat# 1129-ER) (human) (UniProt P04626); assay: Multispot ECL; Fab 70 nM
[3] = target: rHuman IGF-1 sR, (IGF-1 sR), CF (Cat# 391-GR) (human) (UniProt P08069); assay: Multispot ECL; Fab 70 nM
[4] = target: rHuman Notch-1/Fc Chimera, CF (Cat# 3647-TK) (human) (UniProt P46531); assay: Multispot ECL; Fab 70 nM
[5] = target: rHuman P-Cadherin/Fc Chimera, CF (Cat# 861-PC) (human) (UniProt P22223); assay: Multispot ECL; Fab 70 nM
[6] = target: rHuman CD44/Fc Chimera, CF (Cat# 3660-CD) (human) (UniProt P16070); assay: Multispot ECL; Fab 280 nM
[7] = target: rHuman ErbB2/Fc Chimera, CF (Cat# 1129-ER) (human) (UniProt P04626); assay: Multispot ECL; Fab 280 nM
[8] = target: rHuman IGF-1 sR, (IGF-1 sR), CF (Cat# 391-GR) (human) (UniProt P08069); assay: Multispot ECL; Fab 280 nM
[9] = target: rHuman Notch-1/Fc Chimera, CF (Cat# 3647-TK) (human) (UniProt P46531); assay: Multispot ECL; Fab 280 nM
[10] = target: rHuman P-Cadherin/Fc Chimera, CF (Cat# 861-PC) (human) (UniProt P22223); assay: Multispot ECL; Fab 280 nM
[11] = target: rHuman CD44/Fc Chimera, CF (Cat# 3660-CD) (human) (UniProt P16070); assay: Multispot ECL; Fab 17.5 nM
[12] = target: rHuman ErbB2/Fc Chimera, CF (Cat# 1129-ER) (human) (UniProt P04626); assay: Multispot ECL; Fab 17.5 nM
[13] = target: rHuman IGF-1 sR, (IGF-1 sR), CF (Cat# 391-GR) (human) (UniProt P08069); assay: Multispot ECL; Fab 17.5 nM
[14] = target: rHuman Notch-1/Fc Chimera, CF (Cat# 3647-TK) (human) (UniProt P46531); assay: Multispot ECL; Fab 17.5 nM
[15] = target: rHuman P-Cadherin/Fc Chimera, CF (Cat# 861-PC) (human) (UniProt P22223); assay: Multispot ECL; Fab 17.5 nM
[16] = target: rHuman CD44/Fc Chimera, CF (Cat# 3660-CD) (human) (UniProt P16070); assay: Multispot ECL; Fab 4.375 nM
[17] = target: rHuman ErbB2/Fc Chimera, CF (Cat# 1129-ER) (human) (UniProt P04626); assay: Multispot ECL; Fab 4.375 nM
[18] = target: rHuman IGF-1 sR, (IGF-1 sR), CF (Cat# 391-GR) (human) (UniProt P08069); assay: Multispot ECL; Fab 4.375 nM
[19] = target: rHuman Notch-1/Fc Chimera, CF (Cat# 3647-TK) (human) (UniProt P46531); assay: Multispot ECL; Fab 4.375 nM
[20] = target: rHuman P-Cadherin/Fc Chimera, CF (Cat# 861-PC) (human) (UniProt P22223); assay: Multispot ECL; Fab 4.375 nM
[21] = target: rHuman ErbB2/Fc Chimera, CF (Cat# 1129-ER) (human) (UniProt P04626); assay: Multispot ECL; Fab […]
[22] = target: rHuman HGF R/c-MET/Fc Chimera, CF (Cat# 358-MT/CF) (human) (UniProt P08581); assay: Multispot ECL; Fab […]
[23] = target: rHuman IGF-1 sR, (IGF-1 sR), CF (Cat# 391-GR) (human) (UniProt P08069); assay: Multispot ECL; Fab […]
[24] = target: rHuman ErbB2/Fc Chimera, CF (Cat# 1129-ER) (human) (UniProt P04626); assay: Multispot ECL; Fab 0.096 µM
[25] = target: rHuman HGF R/c-MET/Fc Chimera, CF (Cat# 358-MT/CF) (human) (UniProt P08581); assay: Multispot ECL; Fab 0.096 µM
[26] = target: rHuman IGF-1 sR, (IGF-1 sR), CF (Cat# 391-GR) (human) (UniProt P08069); assay: Multispot ECL; Fab 0.096 µM
[27] = target: rHuman ErbB2/Fc Chimera, CF (Cat# 1129-ER) (human) (UniProt P04626); assay: Multispot ECL; Fab 0.0192 µM
[28] = target: rHuman HGF R/c-MET/Fc Chimera, CF (Cat# 358-MT/CF) (human) (UniProt P08581); assay: Multispot ECL; Fab 0.0192 µM
[29] = target: rHuman IGF-1 sR, (IGF-1 sR), CF (Cat# 391-GR) (human) (UniProt P08069); assay: Multispot ECL; Fab 0.0192 µM
[30] = target: rHuman ErbB2/Fc Chimera, CF (Cat# 1129-ER) (human) (UniProt P04626); assay: Multispot ECL; Fab 1.19 µM
[31] = target: rHuman HGF R/c-MET/Fc Chimera, CF (Cat# 358-MT/CF) (human) (UniProt P08581); assay: Multispot ECL; Fab 1.19 µM
[32] = target: rHuman IGF-1 sR, (IGF-1 sR), CF (Cat# 391-GR) (human) (UniProt P08069); assay: Multispot ECL; Fab 1.19 µM
[33] = target: rHuman ErbB2/Fc Chimera, CF (Cat# 1129-ER) (human) (UniProt P04626); assay: Multispot ECL; Fab 0.2975 µM
[34] = target: rHuman HGF R/c-MET/Fc Chimera, CF (Cat# 358-MT/CF) (human) (UniProt P08581); assay: Multispot ECL; Fab 0.2975 µM
[35] = target: rHuman IGF-1 sR, (IGF-1 sR), CF (Cat# 391-GR) (human) (UniProt P08069); assay: Multispot ECL; Fab 0.2975 µM
[36] = target: rHuman ErbB2/Fc Chimera, CF (Cat# 1129-ER) (human) (UniProt P04626); assay: Multispot ECL; Fab 0.01859 µM
[37] = target: rHuman HGF R/c-MET/Fc Chimera, CF (Cat# 358-MT/CF) (human) (UniProt P08581); assay: Multispot ECL; Fab 0.01859 µM
[38] = target: rHuman IGF-1 sR, (IGF-1 sR), CF (Cat# 391-GR) (human) (UniProt P08069); assay: Multispot ECL; Fab 0.01859 µM
[39] = target: rHuman ErbB2/Fc Chimera, CF (Cat# 1129-ER) (human) (UniProt P04626); assay: Multispot ECL; Fab 0.07438 µM
[40] = target: rHuman HGF R/c-MET/Fc Chimera, CF (Cat# 358-MT/CF) (human) (UniProt P08581); assay: Multispot ECL; Fab 0.07438 µM
[41] = target: rHuman IGF-1 sR, (IGF-1 sR), CF (Cat# 391-GR) (human) (UniProt P08069); assay: Multispot ECL; Fab 0.07438 µM
[42] = target: rHuman EGF R/Fc Chimera, CF (Cat# 344-ER) (human) (UniProt P00533); assay: Multispot ECL; Fab […]
[43] = target: rHuman Erythropoietin R/Fc Chimera, CF (Cat# 963-ER) (human) (UniProt P19235); assay: Multispot ECL; Fab […]
[44] = target: rHuman Notch-1/Fc Chimera, CF (Cat# 3647-TK) (human) (UniProt P46531); assay: Multispot ECL; Fab […]
[45] = target: rHuman P-Cadherin/Fc Chimera, CF (Cat# 861-PC) (human) (UniProt P22223); assay: Multispot ECL; Fab […]
[46] = target: rHuman EGF R/Fc Chimera, CF (Cat# 344-ER) (human) (UniProt P00533); assay: Multispot ECL; Fab 0.51 µM
[47] = target: rHuman Erythropoietin R/Fc Chimera, CF (Cat# 963-ER) (human) (UniProt P19235); assay: Multispot ECL; Fab 0.51 µM
[48] = target: rHuman IGF-1 sR, (IGF-1 sR), CF (Cat# 391-GR) (human) (UniProt P08069); assay: Multispot ECL; Fab 0.51 µM
[49] = target: rHuman Notch-1/Fc Chimera, CF (Cat# 3647-TK) (human) (UniProt P46531); assay: Multispot ECL; Fab 0.51 µM
[50] = target: rHuman P-Cadherin/Fc Chimera, CF (Cat# 861-PC) (human) (UniProt P22223); assay: Multispot ECL; Fab 0.51 µM
[51] = target: rHuman EGF R/Fc Chimera, CF (Cat# 344-ER) (human) (UniProt P00533); assay: Multispot ECL; Fab 0.1275 µM
[52] = target: rHuman Erythropoietin R/Fc Chimera, CF (Cat# 963-ER) (human) (UniProt P19235); assay: Multispot ECL; Fab 0.1275 µM
[53] = target: rHuman IGF-1 sR, (IGF-1 sR), CF (Cat# 391-GR) (human) (UniProt P08069); assay: Multispot ECL; Fab 0.1275 µM
[54] = target: rHuman Notch-1/Fc Chimera, CF (Cat# 3647-TK) (human) (UniProt P46531); assay: Multispot ECL; Fab 0.1275 µM
[55] = target: rHuman P-Cadherin/Fc Chimera, CF (Cat# 861-PC) (human) (UniProt P22223); assay: Multispot ECL; Fab 0.1275 µM
[56] = target: rHuman EGF R/Fc Chimera, CF (Cat# 344-ER) (human) (UniProt P00533); assay: Multispot ECL; Fab 0.03188 µM
[57] = target: rHuman Erythropoietin R/Fc Chimera, CF (Cat# 963-ER) (human) (UniProt P19235); assay: Multispot ECL; Fab 0.03188 µM
[58] = target: rHuman IGF-1 sR, (IGF-1 sR), CF (Cat# 391-GR) (human) (UniProt P08069); assay: Multispot ECL; Fab 0.03188 µM
[59] = target: rHuman Notch-1/Fc Chimera, CF (Cat# 3647-TK) (human) (UniProt P46531); assay: Multispot ECL; Fab 0.03188 µM
[60] = target: rHuman P-Cadherin/Fc Chimera, CF (Cat# 861-PC) (human) (UniProt P22223); assay: Multispot ECL; Fab 0.03188 µM

rHuman Erythropoietin R/Fc Chimera, CF (Cat# 963-ER) (human), sequence (P19235 25-250, change not shown): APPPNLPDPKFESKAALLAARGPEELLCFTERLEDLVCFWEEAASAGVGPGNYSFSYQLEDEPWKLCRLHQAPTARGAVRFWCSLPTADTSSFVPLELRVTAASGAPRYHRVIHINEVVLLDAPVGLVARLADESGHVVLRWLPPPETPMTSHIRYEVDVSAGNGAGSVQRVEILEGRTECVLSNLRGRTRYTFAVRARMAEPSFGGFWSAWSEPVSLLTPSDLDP

ECL signal [1]: 1370
ECL signal [2]: 1360
ECL signal [3]: 1320
ECL signal [4]: 1490
ECL signal [5]: 1820
ECL signal [6]: 4070
ECL signal [7]: 3950
ECL signal [8]: 3530
ECL signal [9]: 4380
ECL signal [10]: 5400
ECL signal [11]: 664
ECL signal [12]: 541
ECL signal [13]: 626
ECL signal [14]: 680
ECL signal [15]: 949
ECL signal [16]: 424
ECL signal [17]: 384
ECL signal [18]: 369
ECL signal [19]: 480
ECL signal [20]: 469
Substance: Fab VH1-46_IGHD2-15*01_IGHJ2*01 & L12_IGKJ1*01

ECL signal [21]: 11300
ECL signal [22]: 8000
ECL signal [23]: 8930
ECL signal [24]: 3360
ECL signal [25]: 2330
ECL signal [26]: 2450
ECL signal [27]: 2310
ECL signal [28]: 1580
ECL signal [29]: 1830
Substance: Fab VH1-46_IGHD6-13*01_IGHJ4*01 & A27_IGKJ1*01

ECL signal [30]: 38400
ECL signal [31]: 45500
ECL signal [32]: 35200
ECL signal [33]: 15100
ECL signal [34]: 17400
ECL signal [35]: 17400
ECL signal [36]: 5530
ECL signal [37]: 4570
ECL signal [38]: 3780
ECL signal [39]: 7550
ECL signal [40]: 6610
ECL signal [41]: 5800
Substance: Fab VH1-46_IGHD6-13*01_IGHJ4*01 & L2_IGKJ1*01

ECL signal [42]: 530
ECL signal [43]: 566
ECL signal [23]: 564
ECL signal [44]: 654
ECL signal [45]: 502
ECL signal [46]: 2360
ECL signal [47]: 2620
ECL signal [48]: 2240
ECL signal [49]: 2770
ECL signal [50]: 2390
ECL signal [51]: 1060
ECL signal [52]: 1070
ECL signal [53]: 1040
ECL signal [54]: 1500
ECL signal [55]: 957
ECL signal [56]: 694
ECL signal [57]: 789
ECL signal [58]: 765
ECL signal [59]: 849
ECL signal [60]: 775
Substance: Fab VH4-34_IGHD7-27*01_IGHJ4*01 & L5_IGKJ1*01
